The results in this text go back to patent US20210238260.

Residue numbers refer to the chain shown, from its start. In names and notes the source's numbering stands.

First the molecules themselves.
B1: FIXa-K247N/N249S/R318Y/R338E/T343R/E410N (protein)
chain 1: YNSGKLEEFVQGNLERECMEEKCSFEEAREVFENTERTTEFWKQYVDGDQCESNPCLNGGSCKDDINSYECWCPFGFEGKNCELDVTCNIKNGRCEQFCKNSADNKVVCSCTEGYRLAENQKSCEPAVPFPCGRVSVSQTSKLTR
chain 2: VVGGEDAKPGQFPWQVVLNGKVDAFCGGSIVNEKWIVTAAHCVETGVKITVVAGEHNIEETEHTEQNRSVIRIIPHHNYNAAINKYNHDIALLELDEPLVLNSYVTPICIADKEYTNIFLKFGSGYVSGWGRVFHKGYSALVLQYLRVPLVDRATCLESTKFRIYNNMFCAGFHEGGRDSCQGDSGGPHVTEVEGTSFLTGIISWGEECAMKGKYGIYTKVSRYVNWIKNKTKLT
B2: FIXa-Y155F/K247N/N249S/R318Y/T343R/R403E (protein)
chain 1: B1 chain 1
chain 2: B1 chain 2 with E158R, R223E, N230E
B3: FIXa-Y155F/K247N/N249S/R338E/E410N (protein)
chain 1: B1 chain 1
chain 2: B1 chain 2 with Y138R, R163T
B4: FIXa variant D104N/K106S/Y155F/K247N/N249S/R318Y/R338E/R403E/E410N (protein)
chain 1: B1 chain 1 with D104N, K106S
chain 2: B1 chain 2 with R163T, R223E
B5: FIXa-Y155F/K247N/N249S/R318Y/T343R/R403E/E410N (protein)
chain 1: B1 chain 1
chain 2: B1 chain 2 with E158R, R223E
B6: FIXa variant K247N/N249S/R318Y/R338E/E410N (protein)
chain 1: B1 chain 1
chain 2: B1 chain 2 with R163T
B7: FIXa-Y155F/K247N/N249S/R338E/T343R/E410N (protein)
chain 1: B1 chain 1
chain 2: B1 chain 2 with Y138R
B8: FIXa-K247N/N249S/R318Y/T343R/R403E (protein)
chain 1: B1 chain 1
chain 2: B1 chain 2 with E158R, R223E, N230E
B9: FIXa variant I251S/R318Y/R338E/E410N (protein)
chain 1: B1 chain 1
chain 2: B1 chain 2 with N67K, S69N, I71S, R163T
B10: FIXa-Y155F/K247N/N249S/R318Y/T343R/E410N (protein)
chain 1: B1 chain 1
chain 2: B1 chain 2 with E158R
B11: FIXa variant D85N/K228N/R318Y/R338E/R403E/E410N (protein)
chain 1: B1 chain 1 with D85N
chain 2: B1 chain 2 with K48N, N67K, S69N, R163T, R223E
B12: FIXa variant Y259F/K265T/Y345T (protein)
chain 1: B1 chain 1
chain 2: B1 chain 2 with N67K, S69N, Y79F, K85T, Y138R, E158R, R163T, Y165T, N230E
B13: FIXa variant Y155F/K247N/N249S/R318Y/R338E/R403E/E410N (protein)
chain 1: B1 chain 1
chain 2: B1 chain 2 with R163T, R223E
B14: FIXa-Y155F/R318Y/R338E/T343R/R403E/E410N (protein)
chain 1: B1 chain 1
chain 2: B1 chain 2 with N67K, S69N, R223E
B15: FIXa-Y155F/R318Y/R338E/R403E (protein)
chain 1: B1 chain 1
chain 2: B1 chain 2 with N67K, S69N, R163T, R223E, N230E
B16: FIXa variant Y155F/K247N/N249S/R318Y/R338E/E410N (protein)
chain 1: B1 chain 1
chain 2: B1 chain 2 with R163T
B17: FIXa-K247N/N249S/R318Y/T343R/R403E/E410N (protein)
chain 1: B1 chain 1
chain 2: B1 chain 2 with E158R, R223E
B18: FIXa variant D104N/K106S/I251S/R318Y/R338E/R403E/E410N (protein)
chain 1: B1 chain 1 with D104N, K106S
chain 2: B1 chain 2 with N67K, S69N, I71S, R163T, R223E
B19: FIXa-D104N/K106S/K228N/K247N/N249S/R318Y/R338E/R403E/E410N (protein)
chain 1: B1 chain 1 with D104N, K106S
chain 2: B1 chain 2 with K48N, R163T, R223E
B20: FIXa variant Y155F/K228N/R318Y/R338E/R403E/E410N (protein)
chain 1: B1 chain 1
chain 2: B1 chain 2 with K48N, N67K, S69N, R163T, R223E
B21: FIXa-Y155F/K247N/N249S/R338E/T343R/R403E (protein)
chain 1: B1 chain 1
chain 2: B1 chain 2 with Y138R, R223E, N230E
B22: FIXa-Y155F/R318Y/R403E/E410N (protein)
chain 1: B1 chain 1
chain 2: B1 chain 2 with N67K, S69N, E158R, R163T, R223E
B23: FIXa-Y155F/K247N/N249S/T343R/R403E/E410N (protein)
chain 1: B1 chain 1
chain 2: B1 chain 2 with Y138R, E158R, R223E
B24: FIXa variant D104N/K106S/K247N/N249S/R318Y/R338E/R403E/E410N (protein)
chain 1: B1 chain 1 with D104N, K106S
chain 2: B1 chain 2 with R163T, R223E
B25: FIXa variant I251S/R318Y/R338E/R403E/E410N (protein)
chain 1: B1 chain 1
chain 2: B1 chain 2 with N67K, S69N, I71S, R163T, R223E
B26: FIXa-K247N/N249S/R338E/T343R/E410N (protein)
chain 1: B1 chain 1
chain 2: B1 chain 2 with Y138R
B27: FIXa variant Y155F/I251S/R318Y/R338E/R403E/E410N (protein)
chain 1: B1 chain 1
chain 2: B1 chain 2 with N67K, S69N, I71S, R163T, R223E
B28: FIXa-Y155F/R338E/R403E/E410N (protein)
chain 1: B1 chain 1
chain 2: B1 chain 2 with N67K, S69N, Y138R, E158R, R163T, R178E, R223E
B29: FIXa-K247N/N249S/R338E/T343R/R403E (protein)
chain 1: B1 chain 1
chain 2: B1 chain 2 with Y138R, R223E, N230E
B30: FIXa-K247N/N249S/R318Y/T343R/E410N (protein)
chain 1: B1 chain 1
chain 2: B1 chain 2 with E158R
B31: FIXa variant K247N/N249S/R318Y/R338E/R403E/E410N (protein)
chain 1: B1 chain 1
chain 2: B1 chain 2 with R163T, R223E
B32: FIXa-D104N/K106S/R318Y/R338E/T343R/R403E/E410N (protein)
chain 1: B1 chain 1 with D104N, K106S
chain 2: B1 chain 2 with N67K, S69N, R223E

Factor X (FX), P00742, sequence (P00742 whole entry, looked up): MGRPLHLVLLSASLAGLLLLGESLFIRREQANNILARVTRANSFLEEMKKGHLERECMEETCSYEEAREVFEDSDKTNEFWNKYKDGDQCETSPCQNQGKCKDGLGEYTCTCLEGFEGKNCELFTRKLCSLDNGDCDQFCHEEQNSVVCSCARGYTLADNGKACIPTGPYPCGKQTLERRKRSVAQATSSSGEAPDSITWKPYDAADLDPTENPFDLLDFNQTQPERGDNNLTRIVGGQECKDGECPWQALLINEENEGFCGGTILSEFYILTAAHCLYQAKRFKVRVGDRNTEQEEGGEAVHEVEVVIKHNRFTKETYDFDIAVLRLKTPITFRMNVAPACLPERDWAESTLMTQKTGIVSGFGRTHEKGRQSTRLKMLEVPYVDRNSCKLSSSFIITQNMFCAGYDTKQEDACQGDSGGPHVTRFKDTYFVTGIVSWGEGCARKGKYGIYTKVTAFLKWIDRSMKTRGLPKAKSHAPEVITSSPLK

The data set addresses Factor X (FX), P00742.
For B1, the “% of WT kcat/KM” value is listed as 687%; the KM came to 0.0328 µM; the kcat (s^-1) of FX activation by FIXa variant in the Xase complex (FVIIIa, PC/PS vesicles, Ca2+), fluorogenic FXa read-out is 8.8 s⁻¹; the kcat/KM for FX activation (Xase: FVIIIa, PC/PS vesicles, Ca2+) came to 3.2e+08 M⁻¹ s⁻¹.

With B2, the “% of WT kcat/KM” value is 276%; the KM came to 0.0605 µM; the kcat (s^-1) of FX activation by FIXa variant in the Xase complex (FVIIIa, PC/PS vesicles, Ca2+), fluorogenic FXa read-out is 7.5 s⁻¹; the kcat/KM for FX activation (Xase: FVIIIa, PC/PS vesicles, Ca2+) came to 1.3e+08 M⁻¹ s⁻¹.

For B3, the “% of WT kcat/KM” value came to 1009%; the KM is 0.0177 µM; the kcat (s^-1) of FX activation by FIXa variant in the Xase complex (FVIIIa, PC/PS vesicles, Ca2+), fluorogenic FXa read-out stood at 7.3 s⁻¹; the kcat/KM for FX activation (Xase: FVIIIa, PC/PS vesicles, Ca2+) came out at 4.7e+08 M⁻¹ s⁻¹.

Turning to B4, the kcat was found to be 6.9 s⁻¹.

As for B5, the “% of WT kcat/KM” value came out at 350%; the KM is 0.0606 µM; the kcat (s^-1) of FX activation by FIXa variant in the Xase complex (FVIIIa, PC/PS vesicles, Ca2+), fluorogenic FXa read-out worked out at 9 s⁻¹; the kcat/KM for FX activation (Xase: FVIIIa, PC/PS vesicles, Ca2+) is 1.6e+08 M⁻¹ s⁻¹.

For the protein B6, the catalytic constant (kcat) was 3.8 s⁻¹.

Consider B7, for which the “% of WT kcat/KM” value worked out at 391%; the KM came out at 0.027 µM; the kcat (s^-1) of FX activation by FIXa variant in the Xase complex (FVIIIa, PC/PS vesicles, Ca2+), fluorogenic FXa read-out came to 4.8 s⁻¹; the kcat/KM for FX activation (Xase: FVIIIa, PC/PS vesicles, Ca2+) worked out at 1.8e+08 M⁻¹ s⁻¹.

Take B8: the “% of WT kcat/KM” value turned out to be 84%; the Michaelis constant (KM) was 0.105 µM; the kcat (s^-1) of FX activation by FIXa variant in the Xase complex (FVIIIa, PC/PS vesicles, Ca2+), fluorogenic FXa read-out came out at 3.7 s⁻¹; the kcat/KM for FX activation (Xase: FVIIIa, PC/PS vesicles, Ca2+) worked out at 3.9e+07 M⁻¹ s⁻¹.

For B9, the kcat stood at 6.4 s⁻¹.

For the protein B10, the “% of WT kcat/KM” value was 668%; the Michaelis-Menten constant (KM) worked out at 0.0381 µM; the kcat (s^-1) of FX activation by FIXa variant in the Xase complex (FVIIIa, PC/PS vesicles, Ca2+), fluorogenic FXa read-out was determined as 8.1 s⁻¹; the kcat/KM for FX activation (Xase: FVIIIa, PC/PS vesicles, Ca2+) came out at 3.1e+08 M⁻¹ s⁻¹.

As to B11, the catalytic constant (kcat) came out at 6 s⁻¹.

Regarding B12, the turnover number (kcat) came to 1.7 s⁻¹.

Regarding B13, the catalytic constant (kcat) is 6.2 s⁻¹.

As for B14, the kcat of FX activation by FIXa (Xase complex with FVIIIa, PC/PS vesicles, Ca2+) was 7.8 s⁻¹.

As to B15, the kcat is 5.1 s⁻¹.

For B16, the kcat was determined as 4.5 s⁻¹.

Turning to B17, the “% of WT kcat/KM” value came out at 279%; the KM was 0.0805 µM; the kcat (s^-1) of FX activation by FIXa variant in the Xase complex (FVIIIa, PC/PS vesicles, Ca2+), fluorogenic FXa read-out came to 9.5 s⁻¹; the kcat/KM for FX activation (Xase: FVIIIa, PC/PS vesicles, Ca2+) was found to be 1.3e+08 M⁻¹ s⁻¹.

Consider B18, for which the turnover number (kcat) is 5.5 s⁻¹.

B19: the kcat of FX activation by FIXa (Xase complex with FVIIIa, PC/PS vesicles, Ca2+) came to 6.1 s⁻¹.

Take B20: the turnover number (kcat) stood at 6.7 s⁻¹.

Consider B21, for which the “% of WT kcat/KM” value is given as 1269%; the Michaelis constant (KM) stood at 0.0251 µM; the kcat (s^-1) of FX activation by FIXa variant in the Xase complex (FVIIIa, PC/PS vesicles, Ca2+), fluorogenic FXa read-out was 14.6 s⁻¹; the kcat/KM for FX activation (Xase: FVIIIa, PC/PS vesicles, Ca2+) was 5.9e+08 M⁻¹ s⁻¹.

Regarding B22, the kcat was 2.9 s⁻¹.

Turning to B23, the “% of WT kcat/KM” value stood at 635%; the Michaelis constant (KM) worked out at 0.052 µM; the kcat (s^-1) of FX activation by FIXa variant in the Xase complex (FVIIIa, PC/PS vesicles, Ca2+), fluorogenic FXa read-out was 15 s⁻¹; the kcat/KM for FX activation (Xase: FVIIIa, PC/PS vesicles, Ca2+) was determined as 2.9e+08 M⁻¹ s⁻¹.

B24: the kcat was 5.2 s⁻¹.

With B25, the kcat came to 4.8 s⁻¹.

Regarding B26, the “% of WT kcat/KM” value is 676%; the Michaelis constant (KM) was 0.0275 µM; the kcat (s^-1) of FX activation by FIXa variant in the Xase complex (FVIIIa, PC/PS vesicles, Ca2+), fluorogenic FXa read-out came to 7.9 s⁻¹; the kcat/KM for FX activation (Xase: FVIIIa, PC/PS vesicles, Ca2+) was 3.1e+08 M⁻¹ s⁻¹.

B27: the catalytic constant (kcat) came out at 7.2 s⁻¹.

Regarding B28, the catalytic constant (kcat) was 5.9 s⁻¹.

In the case of B29, the “% of WT kcat/KM” value is on record as 1215%; the KM is 0.0263 µM; the “catalytic activity (kcat/KM) for activation of FX” value is “improved activity when combined with other mutations”; the kcat (s^-1) of FX activation by FIXa variant in the Xase complex (FVIIIa, PC/PS vesicles, Ca2+), fluorogenic FXa read-out was found to be 14.6 s⁻¹. The kcat/KM for FX activation (Xase: FVIIIa, PC/PS vesicles, Ca2+) worked out at 5.6e+08 M⁻¹ s⁻¹.

Consider B30, for which the “% of WT kcat/KM” value was 439%; the KM came to 0.0401 µM; the kcat (s^-1) of FX activation by FIXa variant in the Xase complex (FVIIIa, PC/PS vesicles, Ca2+), fluorogenic FXa read-out amounted to 6.1 s⁻¹; the kcat/KM for FX activation (Xase: FVIIIa, PC/PS vesicles, Ca2+) turned out to be 2e+08 M⁻¹ s⁻¹.

Turning to B31, the catalytic constant (kcat) came out at 5.8 s⁻¹.

In the case of B32, the kcat of FX activation by FIXa (Xase complex with FVIIIa, PC/PS vesicles, Ca2+) came to 5.7 s⁻¹.

A word on the KM: it is the concentration of substrate that gives half-maximal velocity. Broadly, the kcat is the maximal rate divided by the concentration of active sites.
